According to patent publication CN117751139A (YONGXIAN PHARMACEUTICAL CO LTD; UNIV AIX MARSEILLE; INST …, dated 2024):

How the values were obtained:
[1] = biological target: T1, human Nectin-4 with N-terminal Flag epitope tag, on transfected MDA-MB231 cells (human, UniProt Q96NY8 32-510); assay: flow cytometry on MDA-MB231 cells transfected with N-terminally Flag-tagged Nectin-4
T1 construct: whole, on cells; also called PVRL4; PRR4
T1 sequence (looked up): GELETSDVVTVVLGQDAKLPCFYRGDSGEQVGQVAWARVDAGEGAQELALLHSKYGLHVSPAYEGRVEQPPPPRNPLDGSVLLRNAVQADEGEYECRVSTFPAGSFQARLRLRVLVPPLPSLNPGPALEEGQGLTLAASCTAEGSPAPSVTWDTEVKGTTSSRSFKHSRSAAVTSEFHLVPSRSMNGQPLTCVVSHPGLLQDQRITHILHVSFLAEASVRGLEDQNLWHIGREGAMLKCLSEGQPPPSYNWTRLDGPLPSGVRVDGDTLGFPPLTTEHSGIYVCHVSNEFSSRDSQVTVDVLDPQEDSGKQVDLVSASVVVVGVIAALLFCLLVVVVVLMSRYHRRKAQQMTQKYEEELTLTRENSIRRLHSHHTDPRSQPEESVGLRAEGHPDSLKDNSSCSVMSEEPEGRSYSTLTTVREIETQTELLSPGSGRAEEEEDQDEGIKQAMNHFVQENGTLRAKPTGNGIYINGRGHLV

[2] = biological target: T2, human Nectin-4 on CHO cells transfected with human Nectin-4 cDNA (human, UniProt Q96NY8 32-510); assay: flow cytometry competition on CHO cells with human Nectin-4; competitor Nec1-VCC
T2 construct: whole, on cells
T2 sequence (looked up): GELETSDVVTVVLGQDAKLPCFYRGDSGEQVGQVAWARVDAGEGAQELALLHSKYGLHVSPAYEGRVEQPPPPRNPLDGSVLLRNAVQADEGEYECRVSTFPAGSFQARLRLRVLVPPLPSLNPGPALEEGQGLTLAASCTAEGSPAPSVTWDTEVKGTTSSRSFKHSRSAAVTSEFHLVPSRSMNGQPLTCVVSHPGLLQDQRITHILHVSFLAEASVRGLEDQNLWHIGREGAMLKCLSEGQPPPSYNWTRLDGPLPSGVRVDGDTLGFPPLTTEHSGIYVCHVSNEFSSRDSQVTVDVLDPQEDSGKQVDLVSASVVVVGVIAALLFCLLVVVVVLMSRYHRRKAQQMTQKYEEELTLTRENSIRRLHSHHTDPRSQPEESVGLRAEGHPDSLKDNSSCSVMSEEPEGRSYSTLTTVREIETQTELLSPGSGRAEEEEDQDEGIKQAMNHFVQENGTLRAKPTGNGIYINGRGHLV

[3] = biological target: T3, Nectin-4 expressed by normal differentiated human keratinocytes (NHEK) (human, UniProt Q96NY8 32-510); assay: flow cytometry on normal differentiated human keratinocytes (NHEK), 8 pM-33 nM; reference of the comparison
T3 construct: whole, on cells; also called Nectin-4 on NHEK; keratinocyte Nectin-4
T3 sequence (looked up): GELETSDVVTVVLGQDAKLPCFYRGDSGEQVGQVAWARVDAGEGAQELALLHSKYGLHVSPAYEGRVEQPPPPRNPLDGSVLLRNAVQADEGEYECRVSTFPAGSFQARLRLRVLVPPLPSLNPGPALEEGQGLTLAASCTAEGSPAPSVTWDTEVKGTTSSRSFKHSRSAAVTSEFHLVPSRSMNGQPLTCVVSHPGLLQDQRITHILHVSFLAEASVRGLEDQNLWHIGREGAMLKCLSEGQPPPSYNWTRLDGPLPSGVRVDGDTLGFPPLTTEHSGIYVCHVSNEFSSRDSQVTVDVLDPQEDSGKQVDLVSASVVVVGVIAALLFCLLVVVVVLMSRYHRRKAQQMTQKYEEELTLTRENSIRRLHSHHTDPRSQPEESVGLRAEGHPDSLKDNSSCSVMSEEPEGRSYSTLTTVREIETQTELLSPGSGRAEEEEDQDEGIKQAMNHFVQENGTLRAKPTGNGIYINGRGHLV

[4] = biological target: T4, Nectin-4 extracellular domain Fc fusion recombinant protein (Nec4-VCC) (human, UniProt Q96NY8 32-349); assay: statement in the legend of the competition ELISA on coated Nec4-VCC
T4 construct: extracellular domain; also called Nectin-4-VCC-Fc; not shown: Fc part
T4 sequence (looked up): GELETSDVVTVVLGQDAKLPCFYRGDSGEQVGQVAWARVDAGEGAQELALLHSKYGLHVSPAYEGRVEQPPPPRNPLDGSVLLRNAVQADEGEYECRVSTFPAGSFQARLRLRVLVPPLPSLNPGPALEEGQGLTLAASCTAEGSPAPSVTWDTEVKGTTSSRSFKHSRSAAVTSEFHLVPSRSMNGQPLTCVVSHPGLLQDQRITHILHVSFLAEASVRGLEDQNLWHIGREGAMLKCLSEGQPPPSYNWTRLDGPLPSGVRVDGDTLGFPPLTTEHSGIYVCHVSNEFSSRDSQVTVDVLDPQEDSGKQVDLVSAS

[5] = biological target: T5, Nectin-1 extracellular domain Fc fusion recombinant protein (Nec1-VCC) (UniProt Q15223 31-355, limits assumed); assay: ELISA, Nec1-VCC coated on plate, peroxidase-conjugated Ch-15A7.5
T5 construct: extracellular domain; also called Nectin-1-VCC-Fc; not shown: Fc part
T5 sequence (looked up): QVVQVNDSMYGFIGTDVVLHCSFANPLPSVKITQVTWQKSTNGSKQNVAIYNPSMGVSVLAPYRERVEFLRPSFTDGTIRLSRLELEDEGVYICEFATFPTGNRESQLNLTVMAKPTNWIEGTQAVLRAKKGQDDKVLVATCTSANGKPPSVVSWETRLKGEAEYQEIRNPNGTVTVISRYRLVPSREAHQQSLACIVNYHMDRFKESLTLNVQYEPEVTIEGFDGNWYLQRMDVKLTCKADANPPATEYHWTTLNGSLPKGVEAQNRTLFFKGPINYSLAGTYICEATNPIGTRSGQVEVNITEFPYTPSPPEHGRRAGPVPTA

B1: Ch-5A12.2 (antibody, V domains shown)
VH: QIQLQQSGAELVKPGASVTLSCKTSGFTFNSMYISWLKQKPGQSLEWIAWIYAGTGGTRFNQKFTGKVQLTVDTSSSTAYMQFSSLTTDDSAIYYCAIRSGFVPMDYWGQGTSVTVSS
VL: SIVMTQTPKFLLVSAGDRVTITCKASQSVSNDVAWYQQKPGQSPKLLIYYASNRYTGVPDRFTGSGYGTDFTFTISTVQAEDLAVYFCQQDYSSPWTFGGGTKLEIK
notes: also called 5A12.2 mAb; chimeric 5A12.2
[1]
  binding result: binds
[2]
  binding result: binds
[3]
  binding result: binds

B2: HA22 (enfortumab) (antibody, V domains shown)
VH: EVQLVESGGGLVQPGGSLRLSCAASGFTFSSYNMNWVRQAPGKGLEWVSYISSSSSTIYYADSVKGRFTISRDNAKNSLSLQMNSLRDEDTAVYYCARAYYYGMDVWGQGTTVTVSS
VL: DIQMTQSPSSVSASVGDRVTITCRASQGISGWLAWYQQKPGKAPKFLIYAASTLQSGVPSRFSGSGSGTDFTLTISSLQPEDFATYYCQQANSFPPTFGGGTKVEIK
notes: also called 恩弗妥单抗; HA22 mAb
[4]
  binding result: binds

B3: Ch-15A7.5 (antibody, V domains shown)
VH: EVKLVESGGGLVQPGGSRKLSCAASGFTFSNYGMAWVRQAPGKGPEWVAFISNLAYGINYADTVTGRFTISRENAKNTLYLEMRSLRSEDTAMYYCARGARATGWFAYWGQGTLVTVSA
VL: DIVMTQSQKFMSTSIGDRVSVTCKASQNVDTHVAWYQEKPGQSPKALIYSASYRYSGVPDRFTGSGSGTDFTLTISNVQSEDLADYFCQQYNSYPLTFGGGTKLEIK
notes: also called Ch-15A7.5 mAb; Ch-15A7 mAb
[5]
  binding result: no binding (tested: 10nM)
